1 molecule from patent US12286461B2, “Recombinant fused polypeptide and use thereof” (priority 2019, dated 2025) can be followed below.

For one assay, the system named is protozoa. The experiment in a line: Mouse pneumonia model, protozoal pneumonia. It is filed as in vivo. The settings on record: BALB/C mouse pneumonia model, nasal drip; average ± standard deviation. The text has this:
(§1) A mouse pneumonia model was successfully established by using a nasal drip method. BALB/C mice with a body weight of 18-24 g were selected, and then anesthetized with ether on day 0, day 1 and day 2, respectively, prepared Streptococcus pneumoniae bacteria solution, adenovirus concentrated solution, Mycoplasma pneumoniae, Chlamydia pneumoniae, protozoa and pneumonia fungi were slowly dropped into the nasal cavity of the mice, so that the bacteria solutions entered the trachea and bronchi, and the bacteria solutions were prevented from flowing into the esophagus during the operation to avoid inactivation of the bacteria solutions, so that the mouse pneumonia model was established. After the model was successfully established, the recombinant fused polypeptides according to the present invention were administered.

A further assay has as its system pneumonia fungi. The experiment in a line: Mouse pneumonia model, fungal pneumonia. The assay is classed as in vivo. The settings on record: BALB/C mouse pneumonia model, nasal drip; average ± standard deviation.
Description: as §1

In assay [1] the test system is SD rats with CCl4-induced hepatic fibrosis. Kind of assay: CCl4-induced hepatic fibrosis animal model. The settings on record: 40% CCl4 i.p. twice a week for 8 weeks, fused polypeptides 6 mg/kg s.c. once every five days. It is filed as in vivo. On the procedure: Modeling was performed on the rats. Each group other than the blank group was injected with 40% CCl4 intraperitoneally twice a week, the first injection was performed at 3 mL/kg, and then injection was performed at 2 mL/kg. Modeling was performed for 8 weeks to induce hepatic fibrosis. After the intraperitoneal injection of CCl4 for the fourth time, the drugs were administered according to Table 3. After induction for 8 weeks, the administration was stopped. The SD rats were dissected the next day, and blood was taken. The liver tissue was stored in a refrigerator at −80° C. for further use. The expression of HYP in the hepatic tissue of rats was detected. [table]

The test system of assay [2] is mice with bleomycin-induced skin fibrosis. Kind of assay: Bleomycin-induced skin fibrosis model. The assay is classed as in vivo, C57/BL black mice. Conditions: C57/BL mice, bleomycin 10 μg/mL s.c. daily for 28 days, 10 mg/kg s.c. once every five days, 6 times, FIG. 6. On the procedure: Bleomycin (10 μg/mL) was injected subcutaneously every day for 28 days to form skin fibrosis. During the modeling period, the administration groups were given drugs for treatment. After modeling, the mice were killed on the next day, and the skin tissue of the mouse back was taken to detect the content of HYP in the skin tissue. [table]

The next assay deals with Streptococcus pneumoniae. Kind of assay: Mouse pneumonia model, bacterial pneumonia. The assay is classed as in vivo. Conditions: BALB/C mouse pneumonia model, nasal drip; average ± standard deviation.
Description: as §1

Assay [3] has as its system SD rats with renal fibrosis. The experiment in a line: Renal fibrosis animal model (ureter ligation). It is filed as in vivo. The settings on record: 6 mg/kg s.c. once every five days, after 15 days. Here is the method:
A renal fibrosis animal model was established. SD rats were anesthetized with 4% chloral hydrate, injected with 1 mL/100 g intraperitoneally, fixed to an operation board, and sterilized in an operation area for further use. […] Muscular layers and abdominal walls were sewed layer by layer, the suture was disinfected with alcohol. After SD rats woke up, the rats were put into a cage for feeding. In the blank group, ureter was not ligated, and other steps were the same.
Then, the animals fell into a blank group, a model group, and recombinant fused polypeptide administration groups, and the administration was started on the second day after the operation, and was performed for 15 days. After administration for 15 days, blood was taken and supernatant was taken to detect the content of TGF-β1 in serum.

The subject of assay [4] is SD rats with bleomycin-induced pulmonary fibrosis. The experiment in a line: Bleomycin-induced pulmonary fibrosis animal model. Conditions: for content of TGF-β1 in serum, difference from the model group: fused polypeptides 10 mg/kg s.c. once every five days, nintedanib 25 mg/kg intragastric once a day. The assay is classed as in vivo. Here is the method:
SD rats were anesthetized by intraperitoneal injection of 4% chloral hydrate with a concentration of 1 mL/100 g. After anesthesia, the rats were fixed and their necks were disinfected by using cotton with 75% alcohol. The skin of the rat neck was longitudinally cut with scissors, and the fascia and muscle were longitudinally bluntly torn with tweezers to expose the trachea. A syringe was inserted into the trachea to inject 5 mg/kg bleomycin, while a blank group was injected with an equal amount of normal saline. Then a rat plate was quickly erected and rotated, the rats' breathing was observed, the neck wound was sterilized after rotation and was sewn, and an amoxicillin anti-inflammatory drug was sprinkled on the suture. After the operation, the rats were put back into a dry and clean cage for resting, waiting for awakening. The rats were awakened after about 1-2 hours, and then fed normally. On the 7th day after modeling, modeling group animals randomly fell into a model group, a Nintedanib positive drug group, recombinant fused polypeptide 1, 2, 3 and 4 dosage groups, and a normal control group, and the groups were administered separately for an administration cycle of 15 days. Living situations of rats were observed every day and their weights were weighed. After administration for 15 days, the eyeballs were removed and blood was taken, the rats were dissected, and lungs were taken. The content of TGF-β1 in serum and the content of HYP in lung tissues were detected.

In a further assay the test system is Chlamydia pneumoniae. The experiment in a line: Mouse pneumonia model, chlamydia pneumonia. The assay is classed as in vivo. The settings on record: BALB/C mouse pneumonia model, nasal drip; average ± standard deviation.
Description: as §1

The test system of another assay is Mycoplasma pneumoniae. Kind of assay: Mouse pneumonia model, mycoplasma pneumonia. The assay is classed as in vivo. The settings on record: BALB/C mouse pneumonia model, nasal drip; average ± standard deviation.
Description: as §1

A further assay concerns adenovirus. The experiment in a line: Mouse pneumonia model, viral pneumonia. It is filed as in vivo. Conditions: BALB/C mouse pneumonia model, nasal drip; average ± standard deviation.
Description: as §1

Assay [5] has as its system mice with myocardial fibrosis. Kind of assay: Isoprenaline-induced myocardial fibrosis animal model. Conditions: BALB/c mice, isoprenaline 5 mg/kg s.c. daily for 7 days, 12 mg/kg s.c. (Table 5), after the 8th day, FIG. 5. The assay is classed as in vivo. On the procedure:
In the model group, the experimental mice were injected with isoprenaline (ISO) (5 mg/kg) subcutaneously on the back of the mice every day for 7 consecutive days, and the mice were injected with normal saline subcutaneously (200 μL/mouse) every day. In the blank group, normal saline was injected subcutaneously (200 μL/mouse) every day. […] After the 8th day, blood was taken and was centrifuged, the supernatant was taken, and the content of TGF-β1 in serum was detected.

The test system of another assay is pulmonary infections. Kind of assay: Mouse pneumonia model, pneumonia caused by pulmonary infections. The assay is classed as in vivo, BALB/C mice. The settings on record: BALB/C mouse pneumonia model, nasal drip, average ± standard deviation.
Description: as §1

Setting [6] is: listed as recombinant fused polypeptide IV.

B1: Acetyl-SDKPGGGGTSLDASIIWAMMQNGGGGLSKLAEAAAKEAAAKEAAAKEAAAKKPRCWRGEGGGGIVRRADRAAVPGGGGRGD (protein)
chain: SDKPGGGGTSLDASIIWAMMQNGGGGLSKLAEAAAKEAAAKEAAAKEAAAKKPRCWRGEGGGGIVRRADRAAVPGGGGRGD
modifications: N-acetyl
notes: Recombinant fused polypeptide Y-linker2-X expressed in 293 cells
Regarding B1, the “Inhibitory effect, Protozoal pneumonia” value with protozoa worked out at 63.45 ± 4.68. In addition, the “Inhibitory effect, Fungal pneumonia” value in the assay on pneumonia fungi was found to be 54.12 ± 5.12. Further, the “content of HYP in liver tissue, difference from the model group” value is given as “highly significantly different from the model group (***P<0.001)” in assay [1] (FIG. 3, listed as Recombinant fused polypeptide 4) and “can lower the HYP content” in assay [1] (FIG. 3, listed as recombinant fused polypeptide IV). Moreover, the “content of HYP in skin tissue, difference from the model group” value is “highly significantly different from the model group (***P<0.001)” in assay [2] (listed as recombinant fused polypeptide 4, 10 mg/kg) and “can lower the hydroxyproline content” in assay [2] (listed as recombinant fused polypeptide IV, 10 mg/kg). For the same molecule, the “Inhibitory effect, Bacterial pneumonia” value in the assay on Streptococcus pneumoniae was 48.61 ± 6.54. Also, the “content of TGF-β1 in serum, difference from the model group” value in assay [3] (FIG. 4, listed as recombinant fused polypeptide 4, 6 mg/kg) is listed as “highly significantly different from the model group (***P<0.001)”; in assay [3] (FIG. 4, listed as recombinant fused polypeptide IV, 6 mg/kg) it was “can lower the TGF-β1 content”; in [4] (bleomycin pulmonary fibrosis, after 15 days, FIG. 2, listed as recombinant fused polypeptide 4), “significantly different from the model group (*P<0.05)”; in assay [4] (bleomycin pulmonary fibrosis, after 15 days, FIG. 2, listed as recombinant fused polypeptide IV) it was “can lower the TGF-β1 content”; in assay [5] (listed as recombinant fused polypeptide 4) it was “significantly different from the model group (**P<0.01)”; in assay [5] (setting [6]), “can lower the TGF-β1 content”. In assay [4] (bleomycin 5 mg/kg intratracheal, dosage 10 mg/kg (Table 2), administration cycle 15 days from day 7 after modeling), the “Survival rate (%)” value stood at 92.9%. Besides, the “hydroxyproline (HYP) content in lung tissue” value in assay [4] (bleomycin pulmonary fibrosis, 10 mg/kg s.c. once every five days, after 15 days, FIG. 1) is recorded as “can lower the hydroxyproline content”. The “Inhibitory effect, Chlamydia pneumonia” value in the assay with Chlamydia pneumoniae is listed as 55.26 ± 6.12. Also, the “Inhibitory effect, Mycoplasma pneumonia” value in the assay with Mycoplasma pneumoniae was determined as 47.30 ± 5.30. Also, the “Inhibitory effect, Viral pneumonia” value with adenovirus came to 78.12 ± 8.27. Besides, the “Inhibitory effect, Pneumonia caused by pulmonary infections” value in the assay with pulmonary infections was 56.93 ± 5.28; in the assay on pulmonary infections (setting [6]) it was “inhibitory effect”.
